This is an account of results in patent US10946092 (BEIJING MABWORKS BIOTECH, dated 2021).

Like-named read-outs stand apart in the source and are kept apart here.

The target of experiment [1] is T1, recombinant human LAG3(ECD)-his (Sino Biological, Cat #: 16498-H08H) (human, UniProt P18627 23-450).
T1 construct: extracellular domain; Bought protein; not shown: his tag
T1 sequence (looked up): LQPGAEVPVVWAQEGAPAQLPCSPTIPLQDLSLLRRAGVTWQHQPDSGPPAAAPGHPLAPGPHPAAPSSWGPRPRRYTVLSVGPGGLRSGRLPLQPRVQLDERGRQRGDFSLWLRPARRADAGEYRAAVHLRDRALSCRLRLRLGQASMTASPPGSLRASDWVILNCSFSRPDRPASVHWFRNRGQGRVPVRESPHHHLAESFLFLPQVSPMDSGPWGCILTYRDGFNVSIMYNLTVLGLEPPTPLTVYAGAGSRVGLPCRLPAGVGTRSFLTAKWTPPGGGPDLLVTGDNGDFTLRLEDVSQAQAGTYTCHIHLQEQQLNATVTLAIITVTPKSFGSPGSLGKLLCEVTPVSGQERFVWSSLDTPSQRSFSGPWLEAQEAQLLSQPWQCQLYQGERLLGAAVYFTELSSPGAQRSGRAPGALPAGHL
The experiment can be described thus: SPR (BIAcore 8K), human LAG3(ECD)-his coupled to chip, antibody injected, 1:1 Langmuir; printed a second time as 'Ka values', read as Kd. The procedure:
(§1) Serially diluted antibodies at concentrations ranging from 0.3 μM to 10 μM were injected into the SPR running buffer (HBS-EP buffer, pH7.4, GE Life Sciences; US; Cat #: BR-1006-69) at 30 μL/minute. The binding capacities were calculated with the RUs of blank controls subtracted. The association rate (Ka) and dissociation rate (Kd) were calculated using the one-to-one Langmuir binding model (BIA Evaluation Software, GE Life Sciences). The equilibrium dissociation constant K_D was calculated as the kd/ka ratio.
On the technique in general: In SPR one partner is held on a chip, and binding of the other changes the refractive index at the surface.

Experiment [2] addresses T2, human LAG3 expressed on HEK293A cells (human, UniProt P18627 23-525).
T2 construct: whole, on cells; also called HEK293A/human LAG3
T2 sequence (looked up): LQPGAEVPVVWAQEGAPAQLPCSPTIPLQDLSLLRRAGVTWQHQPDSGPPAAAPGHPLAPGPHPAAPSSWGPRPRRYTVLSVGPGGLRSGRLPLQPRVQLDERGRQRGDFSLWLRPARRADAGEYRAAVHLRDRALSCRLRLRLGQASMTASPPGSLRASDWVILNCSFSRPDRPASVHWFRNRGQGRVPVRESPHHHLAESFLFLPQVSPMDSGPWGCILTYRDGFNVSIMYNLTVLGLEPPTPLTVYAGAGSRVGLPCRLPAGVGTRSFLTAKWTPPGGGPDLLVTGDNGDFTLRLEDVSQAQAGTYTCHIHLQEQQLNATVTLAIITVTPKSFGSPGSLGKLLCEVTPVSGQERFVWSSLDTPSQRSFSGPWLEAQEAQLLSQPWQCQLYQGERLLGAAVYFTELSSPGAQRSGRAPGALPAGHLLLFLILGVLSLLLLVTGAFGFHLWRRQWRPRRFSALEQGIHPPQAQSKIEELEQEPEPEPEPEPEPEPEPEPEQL
The experiment can be described thus: FACS on HEK293A cells expressing human LAG3.

Experiment [3] has as its target T3, mouse LAG3 expressed on HEK293A cells (mouse, UniProt Q61790 24-521).
T3 construct: whole, on cells; also called HEK293A/mouse LAG3
T3 sequence (looked up): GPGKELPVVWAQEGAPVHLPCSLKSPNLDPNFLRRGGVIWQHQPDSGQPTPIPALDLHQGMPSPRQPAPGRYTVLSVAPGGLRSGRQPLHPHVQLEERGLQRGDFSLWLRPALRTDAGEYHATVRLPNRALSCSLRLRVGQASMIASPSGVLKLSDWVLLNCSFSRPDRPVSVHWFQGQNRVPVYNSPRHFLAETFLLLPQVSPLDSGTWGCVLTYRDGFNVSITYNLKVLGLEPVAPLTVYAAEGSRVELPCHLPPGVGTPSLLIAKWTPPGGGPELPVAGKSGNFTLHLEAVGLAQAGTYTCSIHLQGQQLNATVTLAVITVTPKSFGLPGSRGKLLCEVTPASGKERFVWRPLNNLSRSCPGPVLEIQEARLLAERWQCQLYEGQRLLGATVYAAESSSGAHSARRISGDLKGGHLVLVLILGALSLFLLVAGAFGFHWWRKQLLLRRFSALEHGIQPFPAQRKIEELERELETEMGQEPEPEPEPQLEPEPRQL
The experiment can be described thus: FACS on HEK293A cells expressing mouse LAG3.

The target of experiment [4] is T1, recombinant human LAG3(ECD)-his (Sino …). Put plainly: SPR (BIAcore 8K), human LAG3(ECD)-his coupled to chip, antibody injected, 1:1 Langmuir. The procedure:
as §1

Experiment [5] has as its target T4, monkey (rhesus) LAG3 expressed on HEK293A cells (monkey (rhesus), UniProt A0A5F8A874 23-533).
T4 construct: whole, on cells; also called HEK293A/rh LAG3
T4 sequence: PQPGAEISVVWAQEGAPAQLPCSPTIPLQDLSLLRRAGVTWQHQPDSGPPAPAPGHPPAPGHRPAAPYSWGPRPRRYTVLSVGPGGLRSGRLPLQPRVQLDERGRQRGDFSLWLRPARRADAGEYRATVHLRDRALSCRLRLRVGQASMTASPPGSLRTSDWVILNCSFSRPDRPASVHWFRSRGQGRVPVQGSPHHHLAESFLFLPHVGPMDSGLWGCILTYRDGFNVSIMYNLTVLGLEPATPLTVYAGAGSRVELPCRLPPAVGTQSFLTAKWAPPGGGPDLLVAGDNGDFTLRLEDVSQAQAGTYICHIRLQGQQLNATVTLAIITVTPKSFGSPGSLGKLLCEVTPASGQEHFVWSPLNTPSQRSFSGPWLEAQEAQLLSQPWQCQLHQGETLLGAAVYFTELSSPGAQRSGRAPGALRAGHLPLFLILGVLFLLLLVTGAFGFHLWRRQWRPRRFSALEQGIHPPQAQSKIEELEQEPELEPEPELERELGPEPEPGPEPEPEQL
The experiment can be described thus: FACS on HEK293A cells expressing rhesus LAG3.

Experiment [6] has as its target T3, mouse LAG3 expressed on HEK293A cells. Put plainly: FACS on HEK293A cells expressing mouse LAG3. The source holds these as a separate data set.

B1: chimeric 101F4 antibody (antibody, human IgG4 S228P, kappa, V domains shown)
VH: EVQLEQSGAELVRPGASVTLSCKASGYTFTDYEMHWVKQTPVYGLEWMGAIDPETGGIVYNQRFKGKAILTADKSSSTAYMELRSLTSEDSAVYYCTGAGWGYWGQGTTLTVSS
VL: DIVITQSPSSMYASLGERVTITCKASQDINSYLSWFQQKPGKSPKTLIYRANRLLDGVPSRFSGSGSGQDYSLTISSLEFEDMGLYYCLQYDEFPFTFGSGTKLEIKR
notes: Mouse variable regions on human IgG4 (S228P)/kappa constant regions; also called 101F4-CM
On to B1, for which the off-rate (koff) in experiment [1] is 0.000335 s⁻¹. In experiment [2], the “EC50 (read off the curve)” value is roughly 0.05 mg/L. Besides, the binding result in experiment [3] is on record as “no binding”. Moreover, in experiment [4], the dissociation constant (Kd) stood at 0.833 nM and the kon came to 403000 M⁻¹ s⁻¹. Also, the “EC50 (read off the curve)” value in experiment [5] was roughly 0.4 mg/L.

B2: chimeric 134G10 antibody (antibody, human IgG4 S228P, kappa, V domains shown)
VH: EVQLVESGGDLVKPGGSLKLSCAASGFTFSSFGMSWVRQTPDKRLEWVGIISSGGTYTFYPDILKGRFTISRDNAKNTLYLQMSSLKSEDTAMYYCARVYSDYDGRFDYWGQGTTLTVSS
VL: DIVMTQSPSSLSVSAGEKVTMNCKSSQSLLNSGNQKNYLAWYQQKPGQPPKLLIYGASTRESGVPDRFTGSGSGTDFTLTISSVQAEDLAVYYCQNDHSYPLTFGAGTKLELKR
notes: Mouse variable regions on human IgG4 (S228P)/kappa constant regions; also called 134G10-CM
As for B2, the “EC50 (read off the curve)” value in experiment [2] is roughly 0.09 mg/L. Besides, the binding result in experiment [6] was “no binding”. Also, in experiment [4], the Kd amounted to 0.737 nM and the kon is 93900 M⁻¹ s⁻¹.

As a reminder, the koff is the rate constant with which the complex falls apart. For orientation: EC50 (read off the curve) means the concentration that produces a half-maximal response. In general, Kd refers to a measure of binding affinity in units of concentration. A word on the kon: it is the second-order rate constant of association.
